The nature of data set [1]: OTA hydrolyzing activity assay (specific activity). It is filed as biochemical. As to conditions: 37° C., 200 ng/mL OTA in 100 mM sodium phosphate buffer. How it is done:
To determine the specific activity of recombinant target polypeptides produced e.g. as described in Example 1 above in units per liter (U/L), ochratoxin A (OTA) hydrolyzing activity assays were performed. One unit is defined as the amount of enzyme necessary for hydrolysis of 1 μmol or OTA in 1 min when using a starting OTA concentration of 0.495 μM.
OTA hydrolyzing activity assays were set up in a final volume of the reaction mixture of 200 μL, containing the recombinant enzyme preparation (preferably diluted to yield a volumetric activity of 1-10 mU/L), and 200 ng/mL OTA in 100 mM sodium phosphate buffer.
Specific activities were determined at pH 6.0 and pH 7.5. As soon as all components of the reaction mixture were mixed, OTA hydrolysis was followed at 37° C. on a fluorescence spectrophotometer (BioTek Synergy H1 MFD Multimode microplate reader) by following the reduction in fluorescence at ex/em 390 nm/450 nm.
For calculation of the specific activity, the initial linear part of the recorded fluorescence reduction curve was used. In addition to the fluorescence-based method described above, OTA hydrolysis was also determined by using the HPLC-MS method as described by Dellafiora et al. 2020, Toxins 12, 258, essentially confirming the fluorescence-based results. The specific activities for the polypeptides having amino acid sequences of SEQ ID NOs: 1-4 at different pH are shown in Table 1.

Data set [2] is described as follows: Thermostability assay (residual OTA hydrolyzing activity after 10 min heat incubation). Format: physicochemical. As to conditions: 10 min incubation at 45, 55, 65, 75 or 85 ° C.; 0.1 mg/mL in 20 mM Tris-HCl pH 7.5; relative to 4° C. reference aliquot. How it is done:
To determine the kinetic stability of the produced enzymes towards temperature, thermostability assays were performed. To this end, purified protein samples were diluted to a protein concentration of 0.1 mg/mL in 20 mM Tris-HCl buffer pH 7.5 and aliquots were incubated in a thermocycler for 10 min at either 45, 55, 65, 75 or 85 ° C. After this incubation, the aliquots were stored at 4° C. until further analysis. A reference aliquot was stored at 4° C. throughout the incubation. Subsequently, all aliquots were assayed for residual OTA hydrolyzing activity using the assay described in Example 2. Residual enzyme activities were calculated relative to the reference aliquot. The temperature range in which 50% of the initial activity was lost after the incubation, in relation to the reference aliquot was determined.

Data set [3] in a line: Piglet feeding trial, OTA in plasma and urine by HPLC-MS. Format: in vivo, piglets. As to conditions: for OTA concentration, plasma samples, Day 14 / OTA concentration, urine samples, Day 14: piglets; for % OTA reduction, plasma samples / % OTA reduction, urine samples: day 14. How it is done:
To verify the applicability of the produced enzymes as food or feed additive, piglet feeding trials were conducted. To this end, sufficient amounts of the polypeptide of SEQ ID NO: 1 were produced by cultivation of E. coli transformants in bioreactors. The cell broth was homogenized and centrifuged. The supernatant was concentrated, dried by lyophilization and formulated as a powder by grinding. The enzymatic activity of the thus obtained lyophilized powder was determined, and the powder was mixed with feed for the feeding trial as described in the following.
Five piglet groups were studied based on the following five experimental diet setups: 1) Base feed; 2) base feed+50 ppb OTA; 3) base feed+50 ppb OTA+169 mU of the enzyme of SEQ ID NO: 1 per kg of feed; 4) base feed+500 ppb OTA; 5) base feed+500 ppb OTA+169 mU of the enzyme of SEQ ID NO: 1 per kg of feed.
Each trial group consisted of four piglets weighing approximately 7-8 kg, who were coming out from weaning and adapted to solid diet before being fed the experimental diet as described above. The duration of the feeding trial (i.e. actual days of feeding the experimental diet) was fourteen days. Collectively each trial group consumed around 15 kg of feed. No piglets fell sick to any unexpected disease throughout the feeding trial. Urine and blood samples were collected on day 0, just before starting the experimental diet, and on day 14.
Extraction of OTA was performed from plasma and urine samples for subsequent analysis by HPLC-MS. 200 μL of sample was thoroughly mixed with 800 μL of extraction solution (containing 99% of ethyl acetate and 1% of phosphoric acid, 85%) followed by centrifugation at 19000×g for 5 min for phase separation. 50 μL of upper phase was diluted with 50 μL of acetonitrile, followed by HPLC-MS analysis. The H PLC-MS method as described by Dellafiora et al. 2020, Toxins 12, 258 was used to determine the changes in OTA concentration in the samples taken during the trial upon consumption of the experimental diets. The results are shown in Table 3 using the diet setup numbering as indicated above.

The mark [4] stands for this setting: diet setup 3: base feed+50 ppb OTA+169 mU enzyme per kg of feed.
Where [5] appears, read: diet setup 5: base feed+500 ppb OTA+169 mU enzyme per kg of feed.

B1: SEQ ID NO: 2: OTA-hydrolyzing polypeptide 2 of the present invention, recombinantly produced in E. coli (protein)
chain: MARDEIPADVKALIAQTVTALHGLAPPSAEFDDETQDAVFEAIDAIDGAMWDLNKKIHDHPELGFKEHKARANLVAALCKLGFTVTNPSSLPTAFVATYTQGHGGRTFGVDAEYDALPEVGHACGHNLIAVAAVAAAAGLKAALKARNIAGTIKLIGSPAEEGGGGKVILLNEGVYDCLDACVMAHPEGGMIGNDYDGSAYVGGPASLARAGFEIEFHGRGAHAGAAPWLGINALDAAVQGYTAVSMLRQQLEPTMRVHGIIQGSEKWAQNIIPSYAKVSYSTRALDVKKTLELRDKTVDCFASAAKATGCTYELTAPETEVYAELRNNEPLADAYADLMTHAFGQKIERRGMTTASTDFGNVTYHVPAIHPGFTIESDTVNHTAGFTEAAGKKGAHERTMKVAKGLAMVGAKFLADDKFAKDVRKAFEKFKKGAQ
modifications: OTA hydrolyzing polypeptide 2
notes: OTA-hydrolyzing polypeptide 2 of the present invention, recombinantly produced in E. coli
For the molecule B1, the “Specific OTA hydrolyzing activity” value in data set [1] (pH 6) came out at 3.53 U/g; in data set [1] (pH 7.5) it was 11.01 U/g. Also, the “Temperature range in which 50% of the initial activity was lost” value in data set [2] was 65-75 °C.

B2: SEQ ID NO: 3: OTA-hydrolyzing polypeptide 3 of the present invention, recombinantly produced in E. coli (protein)
chain: MARDEIPADVKALIAQTVTALHGLAPPSAEFDDETQDAVFEAIDAIDDAMWDLNKKIHDHPELGFEEHKARANLVAALCKLGFTVTNPSSLPTAFVATYTHGHGGRTFGVDAEYDALRDVGHACGHNLIAVAAVAAAAGLKAALKARNISGTVKLIGSPAEEGGGGKVILLNEGVYDCLDACVMAHPEGGMIGDDYDGSAYVGGPASLARAGFEIEFHGRGAHAGAAPWLGINALDAAVQGYTAVSMLRQQLEPTMRVHGIIQGSEKWAQNIIPSYAKVSYSTRALDVKKTLELRDKTVDCFASAAKATGCTYDVTAPETEVYAELRNNQPLADAYADLMTKAFGQKIERRGMTTASTDFGNVTYHLPAIHPGFTIESETVNHTKGFTEAAGKKDAHERTMKVAKGLAMVGAKFLADDKFAKDVRKAFEKFKREVE
modifications: OTA hydrolyzing polypeptide 3
notes: OTA-hydrolyzing polypeptide 3 of the present invention, recombinantly produced in E. coli
B2: the results for the “Specific OTA hydrolyzing activity” value in data set [1] (pH 6) and in data set [1] (pH 7.5) were 0.63 U/g and 1.44 U/g, respectively. Moreover, in data set [2], the “Temperature range in which 50% of the initial activity was lost” value is 55-65 °C.

B3: SEQ ID NO: 4: OTA-hydrolyzing polypeptide 4 of the present invention, recombinantly produced in E. coli (protein)
chain: MARDPLPADVRLLIRNNMASAHPQVPTIDGLDSKTQNDVFTAIDAINNDMRDLSLAIHENPELGFKEVKAHANLVKALSKLGFTITNPTSLETAFVATWSNGSGGRTFGFNAEYDALPGIGHACGHNLIAIVAVASAVGCKAAMEKQGISGTIKVIGSPAEEGGGGKIILFNEGVYDGLDACAMAHPGGGMPADGYDGQAPAEGKPASLARAGFIVDFVGKPAHAGAAPWMGVNAVDAAVLGYNGVSMLRQQLEPTVRVHGVIRGPNDWVNNIIPASSHVEYDVRAPDVKQAMAVRNKAIACFESAAHATGCSHTTQSKDKDIYAELRNSIRMAGVYADIMEEVFDQHIQRDGMTTASTDFGNITISACPAVHPMYLIETDGVNHTPEFTAGAATMDSHERSIKVAKGLALLGFKVLTDDVFAKKIKDEFEEQKKRLGA
modifications: OTA hydrolyzing polypeptide 4
notes: OTA-hydrolyzing polypeptide 4 of the present invention, recombinantly produced in E. coli
As to B3, the figures for the “Specific OTA hydrolyzing activity” value in data set [1] (pH 6) and in data set [1] (pH 7.5) were 1.57 U/g and 1.43 U/g, respectively. For the same molecule, in data set [2], the “Temperature range in which 50% of the initial activity was lost” value is 45-55 °C.

B4: SEQ ID NO: 1: OTA-hydrolyzing polypeptide 1 of the present invention, recombinantly produced in E. coli (protein)
chain: MSDHLPADVRDLIRQTMSRLENLVPPSAAFDDETQDAVFEAIDSIDGDMLALNKAIHDNPELGFHEVKAHHHLVQALIKLGFAVTNPTSLPTAFVATWSHGSGGRTFGFNAEYDALPGVGHACGHNLIAIVAVASAAGLKAALKARNIPGTIKVIGSPAEEGGGGKVILLNEGAYDGIDACVMAHPEGGVPGIDDDGSAYTSGPATLARAGFSVELFGKAAHAGAAPWLGVNALDAAVQGYTAVSMLRQQIEPTMRVHGVFDYGKEKWVQNIIPAYAKVEYSTRALDVKSTLELRKKVISCFESAATATGCTHKVSAPETEVYAELRNNVTLADAYADFMTTAFGQKIGRVGITTASTDFGNVTYKMPAIHPGFHLISKGVNHTPEFADAAGTLDAHERAIKVAKGLAMLGAKFLQDDKFAKEVKRKFDEFKKEVGELKLTDNENEVQEVNGVMKQEHIAEQVDEIWL
modifications: OTA hydrolyzing polypeptide 1
notes: OTA-hydrolyzing polypeptide 1 of the present invention, recombinantly produced in E. coli
For the molecule B4, the “Specific OTA hydrolyzing activity” value in data set [1] (pH 6) is listed as 0.11 U/g. For the same molecule, in data set [1] (pH 7.5), the “Specific OTA hydrolyzing activity” value turned out to be 1.20 U/g. Besides, the “Temperature range in which 50% of the initial activity was lost” value in data set [2] is 45-55 °C. In addition, in data set [3] (setting [4]), the “OTA concentration, plasma samples, Day 14” value turned out to be 37 ± 3; the “OTA concentration, urine samples, Day 14” value was 0.00; the “% OTA reduction, plasma samples” value is reported as 9%; the “% OTA reduction, urine samples” value is recorded as 100.0%. In data set [3] (setting [5]), the “OTA concentration, plasma samples, Day 14” value was determined as 350 ± 25; the “OTA concentration, urine samples, Day 14” value was 25.18; the “% OTA reduction, plasma samples” value is reported as 15%; the “% OTA reduction, urine samples” value came to 48.4%.

The record behind these values is patent US20240067950A1, “MEANS AND METHODS FOR DETOXIFYING OCHRATOXIN A” (DSM Austria GmbH, priority 2020, published 2024).
